In US10766960 (dated 2020):

T1: FcgRIa (human, UniProt P12314)
T1 chain: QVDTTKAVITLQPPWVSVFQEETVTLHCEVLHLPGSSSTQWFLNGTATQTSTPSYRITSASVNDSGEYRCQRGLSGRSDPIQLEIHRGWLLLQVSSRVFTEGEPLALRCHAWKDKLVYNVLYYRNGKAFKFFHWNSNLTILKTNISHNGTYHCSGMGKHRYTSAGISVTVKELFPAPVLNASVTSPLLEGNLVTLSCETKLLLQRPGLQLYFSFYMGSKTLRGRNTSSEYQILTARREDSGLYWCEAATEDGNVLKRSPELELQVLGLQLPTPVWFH

T2: FcgRIIa R (human, UniProt P12318)
T2 chain: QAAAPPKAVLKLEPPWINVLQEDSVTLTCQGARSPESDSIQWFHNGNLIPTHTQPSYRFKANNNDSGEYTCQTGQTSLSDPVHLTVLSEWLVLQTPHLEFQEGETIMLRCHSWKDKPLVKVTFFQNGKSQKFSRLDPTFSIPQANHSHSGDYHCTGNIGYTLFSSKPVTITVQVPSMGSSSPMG

T3: FcgRIIb (human, UniProt P31994)
T3 chain: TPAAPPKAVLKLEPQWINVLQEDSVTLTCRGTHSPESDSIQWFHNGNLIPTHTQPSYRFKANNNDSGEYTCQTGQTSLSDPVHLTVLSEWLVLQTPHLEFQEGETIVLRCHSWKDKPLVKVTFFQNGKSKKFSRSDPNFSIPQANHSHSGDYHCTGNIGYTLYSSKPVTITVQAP

T4: FcgRIIa H (human, UniProt P12318)
T4 chain: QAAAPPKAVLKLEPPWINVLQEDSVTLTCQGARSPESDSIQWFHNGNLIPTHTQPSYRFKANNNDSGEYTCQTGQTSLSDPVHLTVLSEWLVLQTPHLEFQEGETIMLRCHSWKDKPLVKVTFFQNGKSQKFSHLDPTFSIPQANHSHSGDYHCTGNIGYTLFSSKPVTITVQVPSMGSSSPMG


Assays:
Assay in all cases: SPR
[1] = molecular target: T1, FcgRIa
[2] = molecular target: T2, FcgRIIa R
[3] = molecular target: T3, FcgRIIb
[4] = molecular target: FcgRIIIa V (human, UniProt P08637)
[5] = molecular target: T4, FcgRIIa H
[6] = molecular target: FcgRIIIa F (human, UniProt P08637)
FcgRIIIa F, sequence (P08637 17-208): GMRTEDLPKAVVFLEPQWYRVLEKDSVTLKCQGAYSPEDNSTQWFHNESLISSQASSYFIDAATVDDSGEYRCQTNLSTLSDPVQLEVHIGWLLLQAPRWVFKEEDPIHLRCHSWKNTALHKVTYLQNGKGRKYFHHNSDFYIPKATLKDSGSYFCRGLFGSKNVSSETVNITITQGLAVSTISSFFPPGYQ

FcgRIIIa V, sequence (P08637 17-208 F176V): as the sequence (P08637 17-208) above, with F160V counted along it

Binder	Kd [1] [nM]	Kd [2] [nM]	Kd [3] [nM]	Kd [4] [nM]	Kd [5] [nM]	Kd [6] [nM]
H240-FA024/H240-FB065/L73-k0 (antibody) chain 1: QDQLVQSGAEVKKPGASVKVSCKASGFNIKDTYIQWVRQAPGQGLEWMGRIDPLRKQTKYREKFEGRVTITADTSTNTAYMELSSLRSEDTAVYYCVRSGREFDYWGQGTLVTVSSASTKGPSVFPLAPSSKSTSGGTAALGCLVKDYFPEPVTVSWNSGALTSGVHTFPAVLQSSGLYSLSSVVTVPSSSLGTKTYTCNVNHKPSNTKVDKKVEPKSCDKTHTCPPCPAPEYYWGPSVFLFPPKPKDTLMISRTPEVTCVVVDVSDEEPKVKFNWYVDGVEVHNAKTKPREEQYNATYRVVSVLTVLHQDWLNGKEYKCKVSNKALPAPIEKTISKAKGQPREPQVYTLPPSRKEKTKNQVSLTCLVKGFYPSDIAVEWESNGQPENNYKTTPPVLDSDGSFFLYSKLTVDKSRWQQGNVFSCSVMHEALHNRYTQKSLSLSP chain 2: QDQLVQSGAEVKKPGASVKVSCKASGFNIKDTYIQWVRQAPGQGLEWMGRIDPLRKQTKYREKFEGRVTITADTSTNTAYMELSSLRSEDTAVYYCVRSGREFDYWGQGTLVTVSSASTKGPSVFPLAPSSKSTSESTAALGCLVKDYFPEPVTVSWNSGALTSGVHTFPAVLQSSGLYSLSSVVTVPSSNFGTQTYTCNVDHKPSNTKVDKTVEPKSCDKTHTCPPCPAPELLGGPSVFLFPPKPKDTLMISRTPEVTCVVVDVSHEEPEVQFNWYVDGVEVHNAETKPREEQYNSTYRVVSVLTVLHQDWLNGKEYKCKVSNDALPMPIEETISKAKGQPREPQVYTLPPSREEMTKNQVSLTCLVKGFYPSDIAVEWESNGQPENNYKTTPPVLDSDGSFFLYSKLTVDKSRWQQGNVFSCSVMHEALHNHYTQESLSLSP chain 3: DIQMTQSPSSLSASVGDRVTITCRASQDIHKYIAWYQQKPGQAPRLLIQYTSTLQPGVPSRFSGSGSGTDYTFTISSLQPEDIATYYCLQYEQLRTFGGGTKVEIKRTVAAPSVFIFPPSDEQLKSGTASVVCLLNNFYPREAKVQWKVDNALQSGNSQESVTEQDSKDSTYSLSSTLTLSKADYEKHKVYACEVTHQGLSSPVTKSFNRGEC	0.15	300	1700	1.4	95	5
H240-FA021/H240-FB082/L73-k0 (antibody) chain 1: QDQLVQSGAEVKKPGASVKVSCKASGFNIKDTYIQWVRQAPGQGLEWMGRIDPLRKQTKYREKFEGRVTITADTSTNTAYMELSSLRSEDTAVYYCVRSGREFDYWGQGTLVTVSSASTKGPSVFPLAPSSKSTSGGTAALGCLVKDYFPEPVTVSWNSGALTSGVHTFPAVLQSSGLYSLSSVVTVPSSSLGTKTYTCNVNHKPSNTKVDKKVEPKSCDKTHTCPPCPAPEYYWGPSVFLFPPKPKDTLMISRTPEVTCVVVDVSDEEPEVKFNWYVDGVEVHNAKTKPREEQYNATYRVVSVLTVLHQDWLNGKEYKCKVSNKALPAPIEKTISKAKGQPREPQVYTLPPSRKEKTKNQVSLTCLVKGFYPSDIAVEWESNGQPENNYKTTPPKLDSDGSFFLYSKLTVDKSRWQQGNVFSCSVMHEALHNRYTQKSLSLSP chain 2: QDQLVQSGAEVKKPGASVKVSCKASGFNIKDTYIQWVRQAPGQGLEWMGRIDPLRKQTKYREKFEGRVTITADTSTNTAYMELSSLRSEDTAVYYCVRSGREFDYWGQGTLVTVSSASTKGPSVFPLAPSSKSTSGETAALGCLVEDYFPEPVTVSWNSGALTSGVHTFPAVLQSSGLYSLSSVVTVPSSSLGTQTYICNVNHKPSNTKVDKKVEPKSCDKTHTCPPCPAPELLGGPSVFLFPPKPKDTLMISRTPEVTCVVVDVSHEEPEVQFNWYVDGVEVHNAETKPREEQYNSTYRVVSVLTVLHQDWLNGKEYKCKVSNDALPMPIEETISKAKGQPREPQVYTLPPSREEMTKNQVSLTCLVKGFYPSDIAVEWESEGQPENNYKTTPPVLDSDGSFFLYSKLTVDKSRWQQGNVFSCSVMHEALHNHYTQESLSLSP chain 3: DIQMTQSPSSLSASVGDRVTITCRASQDIHKYIAWYQQKPGQAPRLLIQYTSTLQPGVPSRFSGSGSGTDYTFTISSLQPEDIATYYCLQYEQLRTFGGGTKVEIKRTVAAPSVFIFPPSDEQLKSGTASVVCLLNNFYPREAKVQWKVDNALQSGNSQESVTEQDSKDSTYSLSSTLTLSKADYEKHKVYACEVTHQGLSSPVTKSFNRGEC	0.06	230	1600	1.5	77	4.2
H240-FA009/H240-FB052/L73-k0 (antibody) chain 1: QDQLVQSGAEVKKPGASVKVSCKASGFNIKDTYIQWVRQAPGQGLEWMGRIDPLRKQTKYREKFEGRVTITADTSTNTAYMELSSLRSEDTAVYYCVRSGREFDYWGQGTLVTVSSASTKGPSVFPLAPSSKSTSGGTAALGCLVKDYFPEPVTVSWNSGALTSGVHTFPAVLQSSGLYSLSSVVTVPSSSLGTKTYICNVNHKPSNTKVDKKVEPKSCDKTHTCPPCPAPEYYWGPSVFLFPPKPKDTLMISRTPEVTCVVVDVSDEEPEVKFNWYVDGVEVHNAKTKPREEQYNATYRVVSVLTVLHQDWLNGKEYKCKVSNKALPAPIEKTISKAKGQPREPQVYTLPPSRKEMTKNQVSLTCLVKGFYPSDIAVEWESNGQPENNYKTTPPVLDSDGSFFLYSKLTVDKSRWQQGNVFSCSVMHEALHNRYTQKSLSLSP chain 2: QDQLVQSGAEVKKPGASVKVSCKASGFNIKDTYIQWVRQAPGQGLEWMGRIDPLRKQTKYREKFEGRVTITADTSTNTAYMELSSLRSEDTAVYYCVRSGREFDYWGQGTLVTVSSASTKGPSVFPLAPSSKSTSGGTAALGCLVKDYFPEPVTVSWNSGALTSGVHTFPAVLQSSGLYSLSSVVTVPSSSLGTQTYICNVNHKPSNTKVDKTVEPKSCDKTHTCPPCPAPELLGGPSVFLFPPKPKDTLMISRTPEVTCVVVDVSHEEPEVQFNWYVDGVEVHNAKTKPREEQYNSTYRVVSVLTVLHQDWLNGKEYKCKVSNDALPMPIEETISKAKGQPREPQVYTLPPSREEMTKNQVSLTCLVKGFYPSDIAVEWESNGQPENNYKTTPPVLDSDGSFFLYSKLTVDKSRWQQGNVFSCSVMHEALHNHYTQESLSLSP chain 3: DIQMTQSPSSLSASVGDRVTITCRASQDIHKYIAWYQQKPGQAPRLLIQYTSTLQPGVPSRFSGSGSGTDYTFTISSLQPEDIATYYCLQYEQLRTFGGGTKVEIKRTVAAPSVFIFPPSDEQLKSGTASVVCLLNNFYPREAKVQWKVDNALQSGNSQESVTEQDSKDSTYSLSSTLTLSKADYEKHKVYACEVTHQGLSSPVTKSFNRGEC	0.051	270	1400	0.89	72	4.3
H240-FA009/H240-FB047/L73-k0 (antibody) chain 1: QDQLVQSGAEVKKPGASVKVSCKASGFNIKDTYIQWVRQAPGQGLEWMGRIDPLRKQTKYREKFEGRVTITADTSTNTAYMELSSLRSEDTAVYYCVRSGREFDYWGQGTLVTVSSASTKGPSVFPLAPSSKSTSGGTAALGCLVKDYFPEPVTVSWNSGALTSGVHTFPAVLQSSGLYSLSSVVTVPSSSLGTKTYICNVNHKPSNTKVDKKVEPKSCDKTHTCPPCPAPEYYWGPSVFLFPPKPKDTLMISRTPEVTCVVVDVSDEEPEVKFNWYVDGVEVHNAKTKPREEQYNATYRVVSVLTVLHQDWLNGKEYKCKVSNKALPAPIEKTISKAKGQPREPQVYTLPPSRKEMTKNQVSLTCLVKGFYPSDIAVEWESNGQPENNYKTTPPVLDSDGSFFLYSKLTVDKSRWQQGNVFSCSVMHEALHNRYTQKSLSLSP chain 2: QDQLVQSGAEVKKPGASVKVSCKASGFNIKDTYIQWVRQAPGQGLEWMGRIDPLRKQTKYREKFEGRVTITADTSTNTAYMELSSLRSEDTAVYYCVRSGREFDYWGQGTLVTVSSASTKGPSVFPLAPSSKSTSGGTAALGCLVKDYFPEPVTVSWNSGALTSGVHTFPAVLQSSGLYSLSSVVTVPSSSLGTQTYICNVNHKPSNTKVDKKVEPKSCDKTHTCPPCPAPELLGGPSVFLFPPKPKDTLMISRTPEVTCVVVDVSHEEPEVQFNWYVDGVEVHNAKTKPREEQYNSTYRVVSVLTVLHQDWLNGKEYKCKVSNDALPMPIEETISKAKGQPREPQVYTLPPSREEMTKNQVSLTCLVKGFYPSDIAVEWESEGQPENNYKTTPPVLDSDGSFFLYSKLTVDKSRWQQGNVFSCSVMHEALHNHYTQESLSLSP chain 3: DIQMTQSPSSLSASVGDRVTITCRASQDIHKYIAWYQQKPGQAPRLLIQYTSTLQPGVPSRFSGSGSGTDYTFTISSLQPEDIATYYCLQYEQLRTFGGGTKVEIKRTVAAPSVFIFPPSDEQLKSGTASVVCLLNNFYPREAKVQWKVDNALQSGNSQESVTEQDSKDSTYSLSSTLTLSKADYEKHKVYACEVTHQGLSSPVTKSFNRGEC	0.05	270	1700	1.1	74	4.4
